Measurements as given in the nanobody polyreactivity screen of Harvey et al. (2022).

Test: yeast display, Sf9 membrane polyspecificity reagent, FACS + sequencing; frameworks hold sequencing errors
In short: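 Nanobodies came from a synthetic yeast display library in Saccharomyces cerevisiae BJ5465, induced with galactose for 36–48 hours and stained for 1 hour at 4 °C with 10% biotinylated, detergent-solubilized Sf9 membrane reagent. Cells were enriched on streptavidin microbeads and then FACS-sorted, with low and high (top ~1%) gates set on anti-HA fluorescence for expression and streptavidin fluorescence for reagent binding. Each polyreactivity label reflects the gate a clone came from. Genes were amplified by colony PCR, sequenced by MiSeq 2 × 250 and filtered by CDR length.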

Sequence | polyreactivity (PSR sort gate)
QVQLVESGGGLVQAGGSLRLSCAASGRTFGYYAMGWYRPAPGKEGELVAVITWSGDSTYYADSVKGRFTISRDNAKNTVYLQMNSLKPEDTAVYYCNADSGNAGTAYDDYDYWGQGTQVTVSS | low polyreactivity
QVQLVESGGGLVQAGGSLRLSCAASGRTFGYYAMGWYRPAPGKERELVAAISSNTDSTYYADSVKGRFTISRDNAKNTVYLQMNSLKPEDTAVYYCAAEAYSYYPGTYEDDYWGQGTQVTVSS | low polyreactivity
QVQLVESGGGLVQAGGSLRLSCAASGRTFGYYAMGWYRQAPGKERELFDAITGRTSRTYYADSVKGRFTISRDNAKNTVYLQMNSLKPEDTAVYYCAARYTRWRYNYKDYDYWGQGTQVTVSS | high polyreactivity
QVQLVESGGGLVQAGGSLRLSCAASGRTFGYYAMGWYRQAPGKERELVAAIRSTGSTNYADSVKGRFTISRDNAKNTVYLQMNSLKPDDTAVYYCNADPWWRFDYWGQGTQVTVSS | low polyreactivity
QVQLVESGGGLVQAGGSLRLSCAASGRTFGYYAMGWYRQAPGKERELVAAISGNGDNTYYADSVKGRFTISRDNAKNTVYLQMNCLIPEDTAVYYCSLWYRYKYAPYRLHGYWGQGTQVTVSS | high polyreactivity
QVQLVESGGGLVQAGGSLRLSCAASGRTFGYYAMGWYRQAPGKERELVAAITLSGGSTYYADSVKGRFTISRDNAKNTVYLQMNSLKPEDTAVYYCAAKWWHFYPYDYWGQGTQVTVSS | high polyreactivity
QVQLVESGGGLVQAGGSLRLSCAASGRTFGYYAMGWYRQAPGKERELVAGIRSSGGSTYYADSVKGRFTISRDNAKNTVYLQMNSLKAEDTAVYYCAARLRSYNYRYGYDYWGQGTQVTVSS | high polyreactivity
QVQLVESGGGLVQAGGSLRLSCAASGRTFGYYAMGWYRQAPGKERELVAPISWSGANTYYADSVKGRFTISRDNAKNTVYLQMNSLKPEDTAVYYCAAVRYYSYAYSIRYGYWGQGTQVTVSS | high polyreactivity
QVQLVESGGGLVQAGGSLRLSCAASGRTFGYYTMGWYRQAPGKEWELVATIRWSGGSTYADSVKGRFTISRDNAKNTVYLQLNSLKPEDTAVYYCYVDPSYYKILFNGFYYWGQGTQVTVSS | high polyreactivity
QVQLVESGGGLVQAGGSLRLSCAASGRTFGYYTMGWYRQSPGKERELVATISSDGTTNYADSVKGRFTISRDNAKNTVYLQMNSLKPEDTAVYYCNADFRLQYYYRIYDYWGQGTQVTVSS | low polyreactivity
QVQLVESGGGLVQAGGSLRLSCAASGRTFHAYVMGWYRQAPGKERELVADISSGGDTYADSVKGRFTISRDNAKNTVYLQMNSLKPEDTAVYYCAVDLIQDESRYWGQGTQVTVSS | low polyreactivity
QVQLVESGGGLVQAGGSLRLSCAASGRTFHRYAMGWYRQAPGKERELVATISRGGSTNYADSVKGRFTISRDNAQTTVYLQRNSLKTEETAVYYCAREYYGSWDSGGGGYWGQGTQVTVAS | high polyreactivity
QVQLVESGGGLVQAGGSLRLSCAASGRTFHSYAMGWYRPAPGKETELVAGISWGGTRTTYADSVTGRFTISRDNAKNTVYLQMNSLKPEDTAVYYCNAVYYALGRSPPDYGYWGQGTQVTVSS | low polyreactivity
QVQLVESGGGLVQAGGSLRLSCAASGRTFHWYTMGWYRLAPGKERELVAAISWSGTTTYYADSVKGRFTISRDNAKNTVYVQMNSLKPEDTAVYYCAFPTYNHNPVSAMTYYYWGQGTQVTVSS | low polyreactivity
QVQLVESGGGLVQAGGSLRLSCAASGRTFHYNVMGWYRQAPGKESELVAASTNTGGSTYYADSVKGRFTISRDNAKNTVYLQMNSLKPEDTAVYYCAAVIWGRRYGAYPYEYWGQGTQVTVSS | low polyreactivity
QVQLVESGGGLVQAGGSLRLSCAASGRTFHYYAMGWYRQAPGKERELVAAINFSGDNTYYADSVKGRFTISRDNAKNTVYLQLNSLKPEDTAVYYCAARREYARYKGYYYWGQGTQVTVSS | low polyreactivity
QVQLVESGGGLVQAGGSLRLSCAASGRTFHYYAMVWYRQAPWKERELVAGITAGGSTYYADSVKGRFTISRDNAKNTVYLLMNSLKPEDNSGYYCAADRSYYGYGYWGKGTQVTVSS | low polyreactivity
QVQLVESGGGLVQAGGSLRLSCAASGRTFIFYAMGWYRQAPGKERELVAAISSSGSGTYYADSVKGRFTISRDNAKNTVYFQMNSLKPEDTAVYYCAADVVNSRRRPKYGYWGQGTQVTVSS | low polyreactivity
QVQLVESGGGLVQAGGSLRLSCAASGRTFIFYAMGWYRQAPGKERELVAAITYSGTSTYYADSVKGRFTISRDNAKNTVYLQMNSLKPEDTAVYYCASRPTPYRDDADEYWGQGTQVTVSS | low polyreactivity
QVQLVESGGGLVQAGGSLRLSCAASGRTFIGNAMGWYRQAPGKERELVAGIDSDGSTNYADSVKGRFTISRDNAKNTVYLLMNSLKPEDTAVYYCAAVQGYRFYEYYYWGQGTQVTVSW | low polyreactivity
QVQLVESGGGLVQAGGSLRLSCAASGRTFIGNAMGWYRQAPGKERELVAGISYRGGSTYYADSVKGRFTISRDNAKNTVYLQMNSLKPEDTAVYYCAAPGRGGYYYWGQGTQVTVSS | high polyreactivity
QVQLVESGGGLVQAGGSLRLSCAASGRTFIGYAMGWYIQAPGKERELVAAISPGGSTKYADSVKGRFTISRDNAKNTVYLQMNILKPEDTAVYYCNAYSQSWNFYGDGDYWGQGTQVTVSS | low polyreactivity

Sequence | polyreactivity (PSR sort gate)
QVQLVESGGGLVQAGGSLRLSCAASGRTFIGYAMGWYRPAPGKERELVAGISWSGGSTYYADSVKGRFTISRDNAKNPVSLQMNSLKPEDTAVYYCAARGRWSTEYGYWGQGTQVTVSS | low polyreactivity
QVQLVESGGGLVQAGGSLRLSCAASGRTFIHYAMGWSRQAPGKERELVAAISRRGGSTYYADSVKGRFTISRDNAKNTVYLQMNSLKPEDTAVYYCAARLLGITGRTDSGAEGDYWGQGTQVTVSS | high polyreactivity
QVQLVESGGGLVQAGGSLRLSCAASGRTFIINTMGWSRQATGTERELVAAISKNGATTNYADSVKGRFTISRDNAKNTVYLQMNSLKPEDTAVYYCNARYSGYLRLDYWGQGTQVTVSS | low polyreactivity
QVQLVESGGGLVQAGGSLRLSCAASGRTFIINTMGWYRQAPGKERELVAAISKNGATTNYADSVKGRFTISRDNAKNTVYLQMNSLKPEDTAVYYCAKKASYWWGYEYWGQGTQVTVSS | low polyreactivity
QVQLVESGGGLVQAGGSLRLSCAASGRTFIPYAMAWYRQAPGKEMELVAAISTTAGTTYYADSVKGRFTISRDNAKNTVYLQMNSLKPEDTAVYYCAAEGYGSFFVAMDYWGQGTQVTVSS | high polyreactivity
QVQLVESGGGLVQAGGSLRLSCAASGRTFIRYTMGWYRPAPGKERELVAAITSTGRTYYADSVKGRFTISRDNAKNTVYLQMNSLKPEDTAVYYCAAKQSWEGYDYWGQGTQVTVSS | low polyreactivity
QVQLVESGGGLVQAGGSLRLSCAASGRTFISNAMGWYRQAPGKERELVATINSGGSTNYADSVKGRFTISRDNAKNTVYLQMNSLKPEDTAVYYCARRVRYKHYDYWGQGTQVTVSS | high polyreactivity
QVQLVESGGGLVQAGGSLRLSCAASGRTFISNAMGWYRQAPVKERELVAAISRSGGSTYYADSVKGRFTISRDNAKNTVYLQMNSLKPEDTAVYYCAATGKQWRTSYDYWGQGTQVTVSS | high polyreactivity
QVQLVESGGGLVQAGGSLRLSCAASGRTFISYAMGWYRQAPGKERELVAAISWSGGRTSYADSVKGRFTISRDNAKNTVYLHMNSLKPEDTAVYYCNAQYNSWFAIKDYDYWGQGTQVTVSS | low polyreactivity
QVQLVESGGGLVQAGGSLRLSCAASGRTFISYAMGWYRQAPGKESELVAAISSSGGSTYYADSVKGRFTISRDNAKNTVYLQMNSLKPEDTEVYYCNAAKVRRDPAWRLLDYWGQGTQVTVSS | low polyreactivity
QVQLVESGGGLVQAGGSLRLSCAASGRTFITYAMGWYRQAPGKERELVAAISSGGGRTYYADSVKGRFTISRDNAKNTVYLQMNSLKPEDTAVYYCAALYVYPLTYKPSRYPYDYWGQGTQVTVSS | high polyreactivity
QVQLVESGGGLVQAGGSLRLSCAASGRTFIVNAMAWYRQAPGKERELVAAISSGGSTNYADSVKGRFTISRDNAKNTVYLQMNSLKPEDTAVYYCASRLRGPRSYWSWYGYWGQGTQVTVSS | high polyreactivity
QVQLVESGGGLVQAGGSLRLSCAASGRTFIVNAMGWYRQAPGKVRELVAAITKGARTYYADSVKGRFTISRDNAKNTVYLQRNSLKPEDTAVYYCNATRLGGNGTRHYYWGQGTQVTVSS | high polyreactivity
QVQLVESGGGLVQAGGSLRLSCAASGRTFIVYAMGWYRQAPGTERELVAGITRGSTTYADSVKGRFTISRDNATNTVYLQMNSLKPEDTAVYYCAARSSRRGPISEGDYWGQGTHVTVSS | high polyreactivity
QVQLVESGGGLVQAGGSLRLSCAASGRTFKFYAMGWYRQAPGKERELVATITSGGSTYYADSVKGRFTISRDNAKNTVYLQMNSLIPEDTAVSYCNAAKTYPDVYEYDYWGQGTQVTVSS | high polyreactivity
QVQLVESGGGLVQAGGSLRLSCAASGRTFKGYTMGWYRQAPGKERELVAAITRSGGGTYYADSVKGRFTISRDNAKNTVYLQMNSLKPEDTAVYYCAARRPGYYYPSKFDYWGQGTQVTVSS | high polyreactivity
QVQLVESGGGLVQAGGSLRLSCAASGRTFKGYTMGWYRQAPGKERELVAVITWSGDRTYYADSVKGRFTISRDNAKNTVYLQMNSLKPEDTAVYYCAARGYSLRTRGDYWGQGTQVTVSS | high polyreactivity
QVQLVESGGGLVQAGGSLRLSCAASGRTFKIYAMGWYRQAPGKERELVAAITWNGDSTHYADSVKGRFTISRDNAKNTVYLQMNSLKPEDTAVYYCNRVGYQSMNYWGQGTQVTVSS | low polyreactivity
QVQLVESGGGLVQAGGSLRLSCAASGRTFKKNAMGWYRQAPGKERELVAAITGSGGSTYYADSVKGRFTISRDNAKKTVYLQMNSLKPEDTAVYYCAAYAYGVWHSQDCGNYWGQGTQVTVSS | low polyreactivity
QVQLVESGGGLVQAGGSLRLSCAASGRTFKKYAMGWYRPAPRKERELVAAITGSGGSTYYADSVKGRFTISRDNAKNTVYLQMNSLKPEDTAVYYCAAYAYGVWHSQDGGNYWGQGTQVTVSS | low polyreactivity
QVQLVESGGGLVQAGGSLRLSCAASGRTFKLNAMGWYRKAPGKERELVAGITRTGDSTYYADSVKGRFTISRDNAKNTVYLQMNSLKPEDTAVYYCAAAEWYSMDYWGQGTQVTVSS | low polyreactivity
